Molecular target: T1, VqsMt (truncated VqsM) (Pseudomonas aeruginosa PAO1) (UniProt Q9I1P2)
T1 sequence: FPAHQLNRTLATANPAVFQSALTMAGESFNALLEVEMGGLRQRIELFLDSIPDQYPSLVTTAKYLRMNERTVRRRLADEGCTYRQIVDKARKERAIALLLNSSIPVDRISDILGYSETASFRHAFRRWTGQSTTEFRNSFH
Assay: EMSA
Conditions: 20 mM Tris-HCl pH 7.4, 50 mM KCl, 5 mM MgCl2, 10% glycerol, 3 ug/ml sheared salmon sperm DNA; room temperature 20 min; DNA 40-50 nM (footprint DNase I at 25 C)

| Sequence | binding |
| --- | --- |
| TAAAGATGGACGCTGGTTTGCGCAGCCCATGCACTGTCCGCCGCTGTCGCACCGATCGTCGTCAGGATCGATAACGCCAGTGCACAAACTTTTTTCATTGGATTTCCTTTCCGAAACGAAACAAGTTGGATTTTGCACCTACCAGAACTGGTAGTTCTGACCTGTGGCTATCTTCGAAGGCATCGATATTATGCACATTGGAACTCTTCATGACATAACGCCGAGTGACT (double strand) [vqsR promoter] | no binding |
| AAAAGGCGGCATCCCTACCCTGATACTCCTGGGCCCTCTCAGTCGGAGGACATACCAGCACACACATGAGGGGGAAGACTAAAGGAGGATGAACGGCAGGCAACCTGCCAGATCTGGTAGGGCGCGCCGACCGGCGCGCCCTGCGCTTCAGATGAGACCCAGCGCCGCGGCGTAGGCGGCAGCCAGCGTCTTGTTCGGCGCGTCGAACTTCTTCTGGATGTTC (double strand) [rhlI promoter] | no binding |
| AAAAAGCCTCCGTCATTCCTCATTGCAGTAAGCCCTGATCGATAAAATGCATCACAGCAGAATTGGCCCGGGGTATGACGCTGTCAAGCGCGCAGCCTTGCCGATACGGCAAAATCATGGCAACCCTATCTGTTATGCCAGCACCGTTCAGGACGCAGCCTTCAGCCATCGAGCATCCCCCTCCCTATGACAACGTTCGACCACCTGGGCCGCTTTACCGCAAGCGATACTGTGCGGTTGTGACAATTCCATGAAACGC (double strand) [rhlR promoter] | no binding |

Source: article PMC4176358
